Measured values as given in paper PMC9716232.

What follows are substances tested against complement component 3b (C3b) (human) (UniProt P01024) (assay: SPR; equilibrium: each FH sample injected at 0.0156-2 uM, in duplicate, over 1500 RUs of C3b amine-coupled on a Biacore CM5 sensor chip; fit to a 1:1 equilibrium model (Biacore software)).

Question: With “FH variant Arg53His (from UniProt P08603 19-1231) (natural protein)” as the substance, how does the Kd read?
Answer: 3.16 µM

Question: For “FH variant Arg175Pro (from UniProt P08603 19-1231) (natural protein)”, which Kd is on record?
Answer: 6.39 µM

Question: For “FH variant Arg567Gly (from UniProt P08603 19-1231) (natural protein)”, which Kd is on record?
Answer: 4.21 µM

Question: For “FH variant Arg1210Cys (from UniProt P08603 19-1231) (natural protein)”, which Kd is on record?
Answer: 1.95 µM

Question: For “control factor H (FH) (from UniProt P08603 19-1231) (natural protein)”, which Kd is on record?
Answer: 1.7 µM
